Molecular target: T1, CD2 항원 (Jurkat T 세포 / T 림프구 표면) (UniProt P06729 25-351, limits assumed)
T1 construct: whole, on cells; also called CD2-positive Jurkat T 세포
T1 sequence (looked up): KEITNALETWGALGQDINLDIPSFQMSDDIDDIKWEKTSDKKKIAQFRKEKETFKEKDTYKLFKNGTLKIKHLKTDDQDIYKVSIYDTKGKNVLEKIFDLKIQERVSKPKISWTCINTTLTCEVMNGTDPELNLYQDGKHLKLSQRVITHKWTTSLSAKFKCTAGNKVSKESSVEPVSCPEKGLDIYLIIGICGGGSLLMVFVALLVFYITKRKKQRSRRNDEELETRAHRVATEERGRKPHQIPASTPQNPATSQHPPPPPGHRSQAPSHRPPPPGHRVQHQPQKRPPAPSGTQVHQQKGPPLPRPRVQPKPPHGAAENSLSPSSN
Experiment: cell-based ELISA on Jurkat T cells, FcR blocker, anti-6X HIS tag-HRP detection

binding result: binds
B1: anti-CD20 scFv-LFA3-1 (other)
chain: FSQQIYGTWKGDVTFHVPSNVPLKEVLWKKQKDKVAELENSEFRAFSDFKGRVYLDTVSGSLTINSLQSEDFGEYEMESPNITDTMKFFLYVLESLPSPTEFGGGGSGGSGSGGGQVQLQQPGAELVKPGASVKMSCKASGYTFTSYNMHWVKQTPGRGLEWIGAIYPGNGDTSYNQKFKGKATLTADKSSSTAYMQLSSLTSEDSAVYYCARSTYYGGDWYFNVWGAGTTVTVSAGGGGSGGGGSGGGGSQIVLSQSPAILSASPGEKVTMTCRASSSVSYIHWFQQKPGSSPKPWIYATSNLASGVPVRFSGSGSGTSYSLTISRVEAEDAATYYCQQWTSNPPTFGGGTKLEIK

Source: patent KR20140021799A (dated 2014)
